B1: Example 1 (peptide)
peptide: YXEGTFISDYSILLDKKAQXDFVNWLLAQGPSSGAPPPS
modifications: D-Ala2; K17((2-[2-(2-Amino-ethoxy)-ethoxy]-acetyl)2-(γ-Glu)-CO-(CH2)18-CO2H); Aib20; C-terminal amide
B2: Example 9 (peptide)
peptide: B1 peptide with A18H
modifications: D-Ala2; K17((2-[2-(2-Amino-ethoxy)-ethoxy]-acetyl)2-(γ-Glu)-CO-(CH2)18-CO2H); Aib20; C-terminal amide
B3: Example 2 (peptide)
peptide: B1 peptide
modifications: D-Ala2; K17((2-[2-(2-Amino-ethoxy)-ethoxy]-acetyl)2-(γ-Glu)-CO-(CH2)16-CO2H); Aib20; C-terminal amide
B4: Example 12 (peptide)
peptide: Y[dA]EGTFISDYSILLDKK([AEEA-AEEA-γGlu-C20 diacid])AQQDFVNWLLAGGPSSGAPPPS-NH2
modifications: N-terminus assumed
SMILES: CC[C@H](C)[C@H](NC(=O)[C@H](CO)NC(=O)[C@H](Cc1ccc(O)cc1)NC(=O)[C@H](CC(=O)O)NC(=O)[C@H](CO)NC(=O)[C@@H](NC(=O)[C@H](Cc1ccccc1)NC(=O)[C@@H](NC(=O)CNC(=O)[C@H](CCC(=O)O)NC(=O)[C@@H](C)NC(=O)[C@@H](N)Cc1ccc(O)cc1)[C@@H](C)O)[C@@H](C)CC)C(=O)N[C@@H](CC(C)C)C(=O)N[C@@H](CC(C)C)C(=O)N[C@@H](CC(=O)O)C(=O)N[C@@H](CCCCN)C(=O)N[C@@H](CCCCNC(=O)COCCOCCNC(=O)COCCOCCNC(=O)CC[C@H](NC(=O)CCCCCCCCCCCCCCCCCCC(=O)O)C(=O)O)C(=O)N[C@@H](C)C(=O)N[C@@H](CCC(N)=O)C(=O)N[C@@H](CCC(N)=O)C(=O)N[C@@H](CC(=O)O)C(=O)N[C@@H](Cc1ccccc1)C(=O)N[C@H](C(=O)N[C@@H](CC(N)=O)C(=O)N[C@@H](Cc1c[nH]c2ccccc12)C(=O)N[C@@H](CC(C)C)C(=O)N[C@@H](CC(C)C)C(=O)N[C@@H](C)C(=O)NCC(=O)NCC(=O)N1CCC[C@H]1C(=O)N[C@@H](CO)C(=O)N[C@@H](CO)C(=O)NCC(=O)N[C@@H](C)C(=O)N1CCC[C@H]1C(=O)N1CCC[C@H]1C(=O)N1CCC[C@H]1C(=O)N[C@@H](CO)C(N)=O)C(C)C
B5: Example 10 (peptide)
peptide: Y[dA]EGTFISDYSILLDKK([AEEA-AEEA-γGlu-C20 diacid])HQQDFVNWLLAGGPSSGAPPPS-NH2
modifications: N-terminus assumed
SMILES: CC[C@H](C)[C@H](NC(=O)[C@H](CO)NC(=O)[C@H](Cc1ccc(O)cc1)NC(=O)[C@H](CC(=O)O)NC(=O)[C@H](CO)NC(=O)[C@@H](NC(=O)[C@H](Cc1ccccc1)NC(=O)[C@@H](NC(=O)CNC(=O)[C@H](CCC(=O)O)NC(=O)[C@@H](C)NC(=O)[C@@H](N)Cc1ccc(O)cc1)[C@@H](C)O)[C@@H](C)CC)C(=O)N[C@@H](CC(C)C)C(=O)N[C@@H](CC(C)C)C(=O)N[C@@H](CC(=O)O)C(=O)N[C@@H](CCCCN)C(=O)N[C@@H](CCCCNC(=O)COCCOCCNC(=O)COCCOCCNC(=O)CC[C@H](NC(=O)CCCCCCCCCCCCCCCCCCC(=O)O)C(=O)O)C(=O)N[C@@H](Cc1c[nH]cn1)C(=O)N[C@@H](CCC(N)=O)C(=O)N[C@@H](CCC(N)=O)C(=O)N[C@@H](CC(=O)O)C(=O)N[C@@H](Cc1ccccc1)C(=O)N[C@H](C(=O)N[C@@H](CC(N)=O)C(=O)N[C@@H](Cc1c[nH]c2ccccc12)C(=O)N[C@@H](CC(C)C)C(=O)N[C@@H](CC(C)C)C(=O)N[C@@H](C)C(=O)NCC(=O)NCC(=O)N1CCC[C@H]1C(=O)N[C@@H](CO)C(=O)N[C@@H](CO)C(=O)NCC(=O)N[C@@H](C)C(=O)N1CCC[C@H]1C(=O)N1CCC[C@H]1C(=O)N1CCC[C@H]1C(=O)N[C@@H](CO)C(N)=O)C(C)C
B6: Example 8 (peptide)
peptide: Y[Aib]EGTFISDYSILLDKK([AEEA-AEEA-γGlu-C20 diacid])AQ[Aib]DFVNWLLAQGPSSGAPPPS-NH2
modifications: N-terminus assumed
SMILES: CC[C@H](C)[C@H](NC(=O)[C@H](CO)NC(=O)[C@H](Cc1ccc(O)cc1)NC(=O)[C@H](CC(=O)O)NC(=O)[C@H](CO)NC(=O)[C@@H](NC(=O)[C@H](Cc1ccccc1)NC(=O)[C@@H](NC(=O)CNC(=O)[C@H](CCC(=O)O)NC(=O)C(C)(C)NC(=O)[C@@H](N)Cc1ccc(O)cc1)[C@@H](C)O)[C@@H](C)CC)C(=O)N[C@@H](CC(C)C)C(=O)N[C@@H](CC(C)C)C(=O)N[C@@H](CC(=O)O)C(=O)N[C@@H](CCCCN)C(=O)N[C@@H](CCCCNC(=O)COCCOCCNC(=O)COCCOCCNC(=O)CC[C@H](NC(=O)CCCCCCCCCCCCCCCCCCC(=O)O)C(=O)O)C(=O)N[C@@H](C)C(=O)N[C@@H](CCC(N)=O)C(=O)NC(C)(C)C(=O)N[C@@H](CC(=O)O)C(=O)N[C@@H](Cc1ccccc1)C(=O)N[C@H](C(=O)N[C@@H](CC(N)=O)C(=O)N[C@@H](Cc1c[nH]c2ccccc12)C(=O)N[C@@H](CC(C)C)C(=O)N[C@@H](CC(C)C)C(=O)N[C@@H](C)C(=O)N[C@@H](CCC(N)=O)C(=O)NCC(=O)N1CCC[C@H]1C(=O)N[C@@H](CO)C(=O)N[C@@H](CO)C(=O)NCC(=O)N[C@@H](C)C(=O)N1CCC[C@H]1C(=O)N1CCC[C@H]1C(=O)N1CCC[C@H]1C(=O)N[C@@H](CO)C(N)=O)C(C)C
B7: Example 3 (peptide)
peptide: Y[Aib]EGTFISDYSI[αMeL]LDKK([AEEA-AEEA-γGlu-C20 diacid])HQ[Aib]DFVE[4Pal]LLEAGPSSGAPPPS-NH2
modifications: N-terminus assumed
SMILES: CC[C@H](C)[C@H](NC(=O)[C@H](Cc1ccccc1)NC(=O)[C@@H](NC(=O)CNC(=O)[C@H](CCC(=O)O)NC(=O)C(C)(C)NC(=O)[C@@H](N)Cc1ccc(O)cc1)[C@@H](C)O)C(=O)N[C@@H](CO)C(=O)N[C@@H](CC(=O)O)C(=O)N[C@@H](Cc1ccc(O)cc1)C(=O)N[C@@H](CO)C(=O)N[C@H](C(=O)N[C@@](C)(CC(C)C)C(=O)N[C@@H](CC(C)C)C(=O)N[C@@H](CC(=O)O)C(=O)N[C@@H](CCCCN)C(=O)N[C@@H](CCCCNC(=O)COCCOCCNC(=O)COCCOCCNC(=O)CC[C@H](NC(=O)CCCCCCCCCCCCCCCCCCC(=O)O)C(=O)O)C(=O)N[C@@H](Cc1c[nH]cn1)C(=O)N[C@@H](CCC(N)=O)C(=O)NC(C)(C)C(=O)N[C@@H](CC(=O)O)C(=O)N[C@@H](Cc1ccccc1)C(=O)N[C@H](C(=O)N[C@@H](CCC(=O)O)C(=O)N[C@@H](Cc1ccncc1)C(=O)N[C@@H](CC(C)C)C(=O)N[C@@H](CC(C)C)C(=O)N[C@@H](CCC(=O)O)C(=O)N[C@@H](C)C(=O)NCC(=O)N1CCC[C@H]1C(=O)N[C@@H](CO)C(=O)N[C@@H](CO)C(=O)NCC(=O)N[C@@H](C)C(=O)N1CCC[C@H]1C(=O)N1CCC[C@H]1C(=O)N1CCC[C@H]1C(=O)N[C@@H](CO)C(N)=O)C(C)C)[C@@H](C)CC
B8: Example 11 (peptide)
peptide: Y[dA]EGTFISDYSILLDKK([AEEA-AEEA-γGlu-C20 diacid])AQQDFVNWLLAQGPSSGAPPPS-NH2
modifications: N-terminus assumed
SMILES: CC[C@H](C)[C@H](NC(=O)[C@H](CO)NC(=O)[C@H](Cc1ccc(O)cc1)NC(=O)[C@H](CC(=O)O)NC(=O)[C@H](CO)NC(=O)[C@@H](NC(=O)[C@H](Cc1ccccc1)NC(=O)[C@@H](NC(=O)CNC(=O)[C@H](CCC(=O)O)NC(=O)[C@@H](C)NC(=O)[C@@H](N)Cc1ccc(O)cc1)[C@@H](C)O)[C@@H](C)CC)C(=O)N[C@@H](CC(C)C)C(=O)N[C@@H](CC(C)C)C(=O)N[C@@H](CC(=O)O)C(=O)N[C@@H](CCCCN)C(=O)N[C@@H](CCCCNC(=O)COCCOCCNC(=O)COCCOCCNC(=O)CC[C@H](NC(=O)CCCCCCCCCCCCCCCCCCC(=O)O)C(=O)O)C(=O)N[C@@H](C)C(=O)N[C@@H](CCC(N)=O)C(=O)N[C@@H](CCC(N)=O)C(=O)N[C@@H](CC(=O)O)C(=O)N[C@@H](Cc1ccccc1)C(=O)N[C@H](C(=O)N[C@@H](CC(N)=O)C(=O)N[C@@H](Cc1c[nH]c2ccccc12)C(=O)N[C@@H](CC(C)C)C(=O)N[C@@H](CC(C)C)C(=O)N[C@@H](C)C(=O)N[C@@H](CCC(N)=O)C(=O)NCC(=O)N1CCC[C@H]1C(=O)N[C@@H](CO)C(=O)N[C@@H](CO)C(=O)NCC(=O)N[C@@H](C)C(=O)N1CCC[C@H]1C(=O)N1CCC[C@H]1C(=O)N1CCC[C@H]1C(=O)N[C@@H](CO)C(N)=O)C(C)C

Where a chain is given by its changes, count along the chain named. Starred links: 1 amine or outer side, 2 acyl side, 3 side chain; linkers in the order of their positions; H or OH if unused. Non-standard residues stand in square brackets, D forms with d. Groups on a side chain read outwards from the residue. No end group written: not given here. *: point of attachment. C20 diacid = O=C(O)CCCCCCCCCCCCCCCCCCC(=O)*; γGlu = O=C(O)[C@H](CCC(=O)[*:2])N[*:1]; 4Pal = N[C@@H](Cc1ccncc1)C(=O)O; αMeL = CC(C)C[C@](C)(N)C(=O)O; AEEA = NCCOCCOCC(=O)O; Aib = CC(C)(N)C(=O)O Some results are limits rather than exact numbers.

The first assay deals with human GLP-1 receptor (human, UniProt P43220 24-463). Kind of assay: cell-based or functional assay.
As for B1, the “hGLP1R cAMP Rel EC50” value was above 5000 nM.
As for B2, the “hGLP1R cAMP Rel EC50” value is above 100 nM.
In the case of B3, the “hGLP1R cAMP Rel EC50” value is above 5000 nM.
B4: the “hGLP1R cAMP Rel EC50” value was above 100 nM.
B5: the “hGLP1R cAMP Rel EC50” value is above 100 nM.
On to B6, for which the “hGLP1R cAMP Rel EC50” value was above 5000 nM.
Consider B7, for which the “hGLP1R cAMP Rel EC50” value was above 5000 nM.
For B8, the “hGLP1R cAMP Rel EC50” value is above 100 nM.

In a further assay the target is human glucagon receptor (human, UniProt P47871 26-477). Kind of assay: cell-based or functional assay.
Chain of human glucagon receptor (P47871 26-477): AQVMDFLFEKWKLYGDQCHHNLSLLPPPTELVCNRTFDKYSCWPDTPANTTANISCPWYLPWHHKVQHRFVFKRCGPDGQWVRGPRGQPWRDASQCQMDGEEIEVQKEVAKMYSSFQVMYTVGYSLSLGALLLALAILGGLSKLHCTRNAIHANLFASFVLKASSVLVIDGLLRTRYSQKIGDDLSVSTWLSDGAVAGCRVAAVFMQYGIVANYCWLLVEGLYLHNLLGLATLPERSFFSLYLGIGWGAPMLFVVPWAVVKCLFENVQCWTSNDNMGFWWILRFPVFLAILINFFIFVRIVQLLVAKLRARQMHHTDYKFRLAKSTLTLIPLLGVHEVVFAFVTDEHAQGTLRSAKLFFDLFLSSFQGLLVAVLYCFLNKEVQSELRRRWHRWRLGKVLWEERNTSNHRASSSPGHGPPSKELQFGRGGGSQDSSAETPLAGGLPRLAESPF
Consider YAEGTFISDYSIAMDKIHQQDFVNWLLAQKGKKNDWKHNITQ-NH2 (ligand) [GIP(1-42)-NH2], for which the “hGcgR cAMP Rel EC50” value is above 5000 nM.
Take B1: the “hGcgR cAMP Rel EC50” value is 575 nM.
Consider B2, for which the “hGcgR cAMP Rel EC50” value is above 5000 nM.
Turning to B3, the “hGcgR cAMP Rel EC50” value came out at 608 nM.
As to B4, the “hGcgR cAMP Rel EC50” value is above 5000 nM.
With B5, the “hGcgR cAMP Rel EC50” value was above 5000 nM.
Take B6: the “hGcgR cAMP Rel EC50” value amounted to 295 nM.
As for B7, the “hGcgR cAMP Rel EC50” value was 1250 nM.
As for B8, the “hGcgR cAMP Rel EC50” value was 445 nM.

Another assay deals with T1, human glucose-dependent insulinotropic peptide receptor (human, UniProt P48546 22-466).
T1 sequence (looked up): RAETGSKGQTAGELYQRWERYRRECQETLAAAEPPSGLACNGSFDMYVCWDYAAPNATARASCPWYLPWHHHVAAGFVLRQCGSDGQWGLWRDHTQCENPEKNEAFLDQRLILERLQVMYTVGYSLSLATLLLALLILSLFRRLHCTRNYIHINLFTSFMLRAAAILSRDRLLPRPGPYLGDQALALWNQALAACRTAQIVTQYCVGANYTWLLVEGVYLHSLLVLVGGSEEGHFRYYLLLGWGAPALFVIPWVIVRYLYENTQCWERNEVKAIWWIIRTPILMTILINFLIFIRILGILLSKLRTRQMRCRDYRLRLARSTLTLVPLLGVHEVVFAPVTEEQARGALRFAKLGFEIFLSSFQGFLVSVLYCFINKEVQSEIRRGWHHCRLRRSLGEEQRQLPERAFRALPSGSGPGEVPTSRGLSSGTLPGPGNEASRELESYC
Kind of assay: cell-based or functional assay.
Take B1: the “hGIPR cAMP Rel EC50” value was found to be 0.0476 nM.
Same read-out and setting: the value for B2 was 0.165 nM; that for B3 was 0.0123 nM.
In the case of B4, the “hGIPR cAMP Rel EC50” value was 0.0911 nM.
On to B5, for which the “hGIPR cAMP Rel EC50” value came out at 0.611 nM.
Still for that read-out and setting: the value for B6 was 0.0268 nM; that for B7 was 0.0178 nM.
The same measure, in the same setting: the value for B8 was 0.0738 nM.

(Values after patent US20210032299A1 (Eli Lilly, published 2021).)
